Results: paper PMC5570134

Biological target: FUS RRM (UniProt P35637 267-373)
Assay: EMSA

FUS RRM, sequence (P35637 267-373): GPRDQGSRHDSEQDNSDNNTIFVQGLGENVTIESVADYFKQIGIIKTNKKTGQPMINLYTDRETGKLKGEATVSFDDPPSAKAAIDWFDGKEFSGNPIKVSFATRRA

Binder | Kd [µM]
AAAAAAAAAAAAAAAAAAAAAAAAAAAAAAAAAAAAAAAA (ssRNA) [Poly-A] | 45 ± 2
GCUGCGGUGUGGAAGGAGUGGCUGGGUUGCGCAGG (structured_RNA) [Sc1] | 48 ± 3
